Source: patent publication US12257281B2, “Hydrophilic antibody-drug conjugates” (priority 2014, dated 2025)
Square brackets hold non-standard residues; d marks the D form. Peptide text beside a SMILES is read from it. * marks the point of attachment. Dolaproine = CO[C@@H]([C@@H]1CCCN1)[C@@H](C)C(=O)O; Hexanoyl(6-maleimido) = O=C1C=CC(=O)N1CCCCCC(=O)*; Dil = CC[C@H](C)[C@H](NC)[C@@H](CC(=O)O)OC; NMeV = CN[C@H](C(=O)O)C(C)C

B1: h1F6-me-vc-PABC-MMAF (conjugate, chains of the INN, looked up)
VH: QVQLVQSGAEVKKPGASVKVSCKASGYTFTNYGMNWVRQAPGQGLKWMGWINTYTGEPTYADAFKGRVTMTRDTSISTAYMELSRLRSDDTAVYYCARDYGDYGMDYWGQGTTVTVSS
VL: DIVMTQSPDSLAVSLGERATINCRASKSVSTSGYSFMHWYQQKPGQPPKLLIYLASNLESGVPDRFSGSGSGTDFTLTISSLQAEDVAVYYCQHSREVPWTFGQGTKVEIK
modifications: me-vc-PABC-MMAF drug conjugate

Key:
[1] = Hydrophobic Interaction Chromatography (HIC) of 8-loaded ADCs; type: physicochemical; conditions: for HIC RT (min) h1F6 8-loads: 8-loaded antibody drug conjugates with antibody h1F6, Table 2; for HIC retention time: ADCs containing the drug linkers as 8 loads, Table 1
Procedure: The hydrophilicity index is measured as the retention time of a conjugate to that of the corresponding unconjugated targeting agent (alone) under high performance liquid chromatography (HPLC) conditions, as further described herein. […] If a different hydrophobic interaction column and/or method is used, it can be calibrated using conjugates from Tables 2 as references to determine reference conjugate mobilities (elution times) on the selected column and/or method. The determined reference mobilities on the selected hydrophobic interaction column and/or method can then be used to calculate a hydrophilicity index of a test article (as would be determined following Example 3). For example, an auristatin T-Glu-Dpr-MA, an me-MMAF and an mc-vc-PABC-MMAE drug linkers can be used to form conjugates to use as references. In another example, an auristatin T-Glu-Dpr-MA-h1F6 ADC, an h1F6-mc-MMAF and an h1F6-mc-vc-PABC-MMAE ADC can be used as references.
Analysis of the ADCs was performed using Hydrophobic Interaction Chromatography (HIC). HIC is performed by running a linear gradient from 0-100% Mobile Phase B (MPB) where Mobile Phase A (MPA) consists of 1.5 M ammonium sulfate, 25 mM potassium phosphate, pH 7.0, and MPB consists of 75% 25 mM potassium phosphate, pH 7.0, 25% isopropanol. Separation was achieved using a Tosoh t-Butyl column (TSK-Gel Butyl-NPR 4.6×35 mm, PN: 14947) heated to 25° C. Test articles were prepared by diluting 70 μg of ADC into MPA such that the total salt concentration is greater than or equal to 1.0 M ammonium sulfate at a total volume of 100 μL. Samples were injected at 90 μL and eluted using a 12 minute gradient. Monitoring at λ=280 nm.

786-O tumors = assay: Single dose mouse xenograft studies, h1F6 ADCs; type: in vivo; conditions: FIG. 6
Text: 786-O cells were obtained from American Type Culture Collection (ATCC, Manassas, VA) and propagated in culture conditions recommended by ATCC. To establish 786-O tumors, 5×10^6 cells were implanted into the right flank of athymic nu/nu female donor mice (Harlan, Indianapolis, IN). When donor tumors were approximately 500 mm^3, mice were euthanized and tumors were aseptically excised and ˜0.5×0.5 mm fragments were loaded into a sterilized 13-gauge trocar for implantation into nu/nu mice. When tumors reached ˜100 mm^3, mice were randomly allocated to treatment groups.
Experimental groups were treated via intraperitoneal injection with compounds at the dose and schedule indicated or alternatively left untreated. Tumors were measured periodically and volumes were calculated using the formula V=((L×W^2)/2). Animals were euthanized when tumors reached the volume of 1000 mm^3 or at the end of the study, whichever came first.
Tumor quadrupling times were chosen as time to endpoint (TTE), which was determined by using the non-liner regression analysis for exponential growth of each individual tumor growth data sets from each experimental animal. The median tumor quadrupling time was calculated based on the tumor volume at the beginning of treatment.
Statistical analysis was conducted using Prism (GraphPad) software for Windows. […]

Molecule	HIC RT (min) h1F6 8-loads [1] [min]	HIC retention time [1] [min]	activity of 8-loaded versus 4-loaded ADC (786-O tumors)
maleimidocaproyl-valine-citrulline-p-aminobenzyl-carbamoyl MMAF [mc-vc-PABC-MMAF]	8.2	8.2	
CC[C@H](C)[C@@H]([C@@H](CC(=O)N1CCC[C@H]1[C@H](OC)[C@@H](C)C(=O)N[C@@H](Cc1ccccc1)C(=O)O)OC)N(C)C(=O)[C@@H](NC(=O)[C@H](C(C)C)N(C)C(=O)CCCCCN1C(=O)C=CC1=O)C(C)C [mc-MMAF, maleimidocaproyl MMAF] ({Hexanoyl(6-maleimido)}-[NMeV]V[Dil][Dolaproine]F-OH)	7.0	7.0	
maleimidocaproyl-valine-citrulline-p-aminobenzyl-carbamoyl MMAE [mc-vc-PABC-MMAE]	9.8	9.8	
B1			4-loaded ADC gave better activity than the 8-loaded ADC
